Source: patent publication US20260042817A1 (PROVIDENCE HEALTH AND SERVICES OREGON, published 2026)

Target: T1, recombinant TGFβ (Homo sapiens (Human), UniProt P01137 279-390, Active TGFβ is a disulfide-linked homodimer ('TGFβ exists as a dimer'). One protomer is given; the assay form is two identical copies.)
T1 construct: also called TGF-beta; transforming growth factor beta
Assay: solution incubation of TGFβ (500 pg/mL) with a range of Fc:TβRII concentrations, 20 min at room temperature; remaining unbound TGFβ read on an anti-TGFβ1 ELISA plate
Procedure: The Fc:TβRII recombinant protein (glycosylated) was tested in vitro using enzyme-linked immunosorbent assay (ELISA) to verify a selective and high binding affinity for TGFβ. A known quantity of recombinant TGFβ (500 pg/mL) was incubated with a range of concentrations of Fc:TβRII in aqueous solution at room temperature for 20 minutes. Aliquots from each sample were applied to an anti-TGFβ1 ELISA plate to measure the remaining unbound TGFβ.

T1 sequence (P01137 279-390 limits assumed, form in doubt): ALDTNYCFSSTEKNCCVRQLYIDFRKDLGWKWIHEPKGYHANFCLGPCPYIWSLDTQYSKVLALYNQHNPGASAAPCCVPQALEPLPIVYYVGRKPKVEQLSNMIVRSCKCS

IC50: 0.27 µg/mL
B1: Fc:TβRII recombinant protein (glycosylated) (Fc fusion)
chain: TIPPHVQKSVNNDMIVTDNNGAVKFPQLCKFCDVRFSTCDNQKSCMSNCSITSICEKPQEVCVAVWRKNDENITLETVCHDPKLPYHDFILEDAASPKCIMKEKKKPGETFFMCSCSSDECNDNIIFSEEYNTSNPDLLLVIFQSSSTMVRSVECPPCPAPPVAGPSVFLFPPKPKDTLMISRTPEVTCVVVDVSHEDPEVQFNWYVDGMEVHNAKTKPREEQFNSTFRVVSVLTVVHQDWLNGKEYKCKVSNKGLPAPIEKTISKTKGQPREPQVYTLPPSREEMTKNQVSLTCLVKGFYPSDIAVEWESNGQPENNYKTTPPMLDSDGSFFLYSKLTVDKSRWQQGNVFSCSVMHEALHNHYTQKSLSLSPGK
modifications: N-glycosylated (expressed in HEK 293T cells); sites not stated
notes: Purified on Protein A from HEK 293T supernatant; also called Fc:TβRII protein; unconjugated Fc:TβRII protein
